{
  "source": "paper PMC10343017",
  "origin": "cited, not measured here",
  "key": {"TEM8 (Homo sapiens)": {"target": "TEM8 (Homo sapiens) (UniProt Q9H6X2)", "sequence (Q9H6X2 33-321)": "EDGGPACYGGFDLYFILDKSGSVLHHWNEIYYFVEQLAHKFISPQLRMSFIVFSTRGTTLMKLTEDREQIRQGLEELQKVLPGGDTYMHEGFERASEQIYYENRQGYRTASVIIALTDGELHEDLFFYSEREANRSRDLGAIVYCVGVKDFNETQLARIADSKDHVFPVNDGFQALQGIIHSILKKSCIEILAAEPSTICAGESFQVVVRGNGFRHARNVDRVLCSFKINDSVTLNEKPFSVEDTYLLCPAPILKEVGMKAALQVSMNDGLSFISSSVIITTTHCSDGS"}, "CMG2 (Homo sapiens)": {"target": "CMG2 (Homo sapiens) (UniProt P58335)", "sequence (P58335 34-318)": "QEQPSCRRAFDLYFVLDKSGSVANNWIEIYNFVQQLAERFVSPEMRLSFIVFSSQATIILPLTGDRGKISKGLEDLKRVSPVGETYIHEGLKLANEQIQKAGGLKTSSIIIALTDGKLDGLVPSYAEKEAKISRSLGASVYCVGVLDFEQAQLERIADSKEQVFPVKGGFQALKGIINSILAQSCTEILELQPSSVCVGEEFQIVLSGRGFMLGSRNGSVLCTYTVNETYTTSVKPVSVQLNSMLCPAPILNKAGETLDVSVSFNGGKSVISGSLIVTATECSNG"}},
  "data": [
    {"substance": "protective antigen (from UniProt P13423)", "values": [
      {"measurement": "Kd", "setting": "TEM8 (Homo sapiens)", "value": 130, "unit": "nM"},
      {"measurement": "Kd", "setting": "CMG2 (Homo sapiens)", "value": 0.78, "unit": "nM"}
    ]}
  ]
}
